Our source for the Fold diff and Kd values is patent US20220332804A1 (CSL INNOVATION, published 2022).

Residue numbers refer to the chain shown, from its start.

One test concerns the target T1, human C2 V448A (human, UniProt P06681 21-752).
T1 sequence: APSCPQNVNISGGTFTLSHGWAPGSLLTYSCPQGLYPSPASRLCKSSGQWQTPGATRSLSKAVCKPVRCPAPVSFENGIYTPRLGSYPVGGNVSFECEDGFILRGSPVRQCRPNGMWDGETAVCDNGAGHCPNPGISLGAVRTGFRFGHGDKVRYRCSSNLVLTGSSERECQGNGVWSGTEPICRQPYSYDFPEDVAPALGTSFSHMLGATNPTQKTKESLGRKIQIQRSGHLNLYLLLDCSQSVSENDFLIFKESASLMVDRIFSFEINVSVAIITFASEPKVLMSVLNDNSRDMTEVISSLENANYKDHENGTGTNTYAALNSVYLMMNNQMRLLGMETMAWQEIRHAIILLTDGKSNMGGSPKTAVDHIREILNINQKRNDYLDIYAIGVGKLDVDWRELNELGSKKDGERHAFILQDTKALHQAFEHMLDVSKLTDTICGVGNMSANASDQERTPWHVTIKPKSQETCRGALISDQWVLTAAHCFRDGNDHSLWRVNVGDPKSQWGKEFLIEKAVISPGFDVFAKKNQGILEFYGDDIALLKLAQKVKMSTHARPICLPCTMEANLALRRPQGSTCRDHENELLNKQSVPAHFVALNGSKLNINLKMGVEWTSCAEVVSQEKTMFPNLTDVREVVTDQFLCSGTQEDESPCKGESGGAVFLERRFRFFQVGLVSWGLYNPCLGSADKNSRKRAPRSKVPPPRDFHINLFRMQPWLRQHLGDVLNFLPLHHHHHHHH
Briefly: SPR, KD relative to WT C2. (SPR reads the build-up and loss of mass on a sensor chip optically.)

A further test concerns the target T2, human C2 N467A (human, UniProt P06681 21-752).
T2 sequence: T1 sequence with A428V, N447A
Briefly: SPR, KD relative to WT C2.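 Also: biacore SPR at 37 °C, anti-C2 mAbs captured on anti-human IgG chips with alanine or serine point mutants of C2 as analyte, KD from 1:1 fit compared with wild-type C2.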

The target of test [1] is T3, human complement C2 (human, UniProt P06681 21-752).
T3 construct: Recombinant full-length human C2 with C-terminal 8x His tag, purified from Expi293F supernatant; also called human C2; huC2
T3 sequence: T1 sequence with A428V
Briefly: SPR, mAb captured, huC2 analyte, pH 6, steady state.

The target in test [2] is T3, human complement C2. Put plainly: SPR, mAb captured, huC2 analyte, pH 6.
A further test has as its target T4, human FcRn/β2m (human, UniProt P55899 24-297; P61769 21-119).
T4 construct: Soluble FcRn/β2m injected as analyte over immobilised antibody; also called neonatal Fc receptor
Briefly: SPR, antibody immobilised, FcRn/β2m analyte, pH 6.0; pH 6.0.

T4 sequence (P55899 24-297 limits assumed, chain 1 of 2): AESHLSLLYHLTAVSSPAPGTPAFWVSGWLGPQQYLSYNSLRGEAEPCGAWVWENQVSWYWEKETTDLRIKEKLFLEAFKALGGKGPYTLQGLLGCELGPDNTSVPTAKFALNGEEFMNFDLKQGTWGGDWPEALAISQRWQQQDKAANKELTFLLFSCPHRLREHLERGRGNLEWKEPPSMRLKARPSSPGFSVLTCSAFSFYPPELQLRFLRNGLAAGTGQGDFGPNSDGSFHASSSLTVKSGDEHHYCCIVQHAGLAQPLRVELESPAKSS
T4 sequence (P61769 21-119 limits assumed, chain 2 of 2): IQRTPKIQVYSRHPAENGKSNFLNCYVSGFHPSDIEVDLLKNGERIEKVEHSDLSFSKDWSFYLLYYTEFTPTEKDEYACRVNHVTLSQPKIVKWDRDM
Method for human FcRn/β2m: Anti-C2 mAbs (1 μg/mL at pH 5) were immobilized on a carboxylmethyldextran (CM5) sensorchip surface using standard EDC/NHS chemistry. Human and Cyno FcRn/β2m (40 μM) were prepared in running buffer (10 mM HEPES, 150 mM NaCl, 10 mM MES adjusted to either pH 6 or pH 7.3) and injected on the immobilized anti-C2 surface at concentrations ranging from 0.078 to 40 μM, prepared in two-fold dilutions in running buffer. Association and dissociation phases were monitored for 180 and 600 seconds, respectively. […] Double referenced sensorgrams were fitted to either a 1:1 kinetic model (pH 6), including a term for mass transport limitation or to a 1:1 steady state model (pH 7.3) where responses at the end of the association phase were plotted against respective concentrations.
Binding to both human and cynomolgus monkey FcRn was tested using the SPR methods described above.

B1: RF16-242 (antibody, human IgG4 S228P, lambda, V domains shown)
VH: EVQLLQSGAEVKKPGESLKISCKGSGYSFTSYWIGWVRQMPGKGLEWMGIIYPGDSDTRYSPSFQGQVTISADKSISTAYLQWSSLKASDTAMYYCARRGHYGDYFDYWGQGTLVTVSS
VL: SYELTQPPSVSVSPGQTARITCSGDALPKKYAYWYHQKSGQAPVLVIYEDRRRPSEIPERFSGSSSGTMATLTITGAQVEDEGVYFCYSRDRAGNQRVFGGGTQLTVLG
notes: pH-dependent anti-C2 antibody from a phage display library
Take B1: the results for the Fold diff with human C2 V448A and in the test with human C2 N467A were 1 fold and 2 fold, respectively.

B2: RF16-226 (antibody)
heavy: not shown
light: SYELTQPPSVSVSPGQTARITCSGDALTSKYVAWYQQKSGLAPLLVIYEDTRRPSGIPAKFSGSSSGSVATLTISGAHGDDEADYYCYSTDASGHQRVFGGGTKLTVLSQPKAAPSVTLFPPSSEELQANKATLVCLISDFYPGAVTVAWKADGSPVKAGVETTKPSKQSNNKYAASSYLSLTPEQWKSHRSYSCQVTHEGSTVEKTVAPTECS
The Kd is the concentration at which binding is half-saturated. A high value points to a looser complex. With B2, the dissociation constant (Kd) in the test with human complement C2 [1] is around 95 nM; with human complement C2 [2], around 80 nM.

B3: RF16-226 (antibody, human IgG4 S228P, lambda)
heavy: not shown
light: B2 light
notes: pH-dependent anti-C2 antibody from a phage display library; also called WT
In the test with human FcRn/β2m, B3 came in with a Kd of 3.8 µM.
